{"source": "paper PMC11303871", "about": "(The Journal of Cell Biology, 2024)", "binders": {"B1": {"name": "CDK-1 (C. elegans Cdk1), endogenous (enzyme)", "chain": "not shown"}, "B2": {"name": "CDK-1 phosphorylated at T179 (pT179 CDK-1), endogenous (enzyme)", "chain": "not shown", "modifications": "phosphothreonine at 179 (pT179)"}, "B3": {"name": "CDK-1 phosphorylated at Y33 (pY33 CDK-1), endogenous (enzyme)", "chain": "not shown", "modifications": "phosphotyrosine at 33 (pY33)"}}, "molecular_target": "T1, 3xFlag::CYB-3 (in situ-tagged cyclin B3) (C. elegans, UniProt Q10654 1-385)", "T1 sequence": "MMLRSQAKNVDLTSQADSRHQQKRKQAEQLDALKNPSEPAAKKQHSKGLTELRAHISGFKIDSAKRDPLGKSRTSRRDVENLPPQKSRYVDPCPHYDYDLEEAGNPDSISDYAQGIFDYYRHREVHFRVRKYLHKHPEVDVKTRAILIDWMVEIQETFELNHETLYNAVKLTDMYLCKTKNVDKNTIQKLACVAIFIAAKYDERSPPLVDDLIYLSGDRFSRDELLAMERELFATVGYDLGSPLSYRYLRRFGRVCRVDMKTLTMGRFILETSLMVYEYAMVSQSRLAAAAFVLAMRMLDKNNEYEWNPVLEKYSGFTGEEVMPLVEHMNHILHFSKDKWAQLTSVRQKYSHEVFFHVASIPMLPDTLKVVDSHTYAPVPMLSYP", "test": "co-IP", "data": [{"binder": "B1", "values": [{"measurement": "amount of CDK-1 bound relative to CYB-1", "value": "~1.3", "unit": "times"}]}, {"binder": "B2", "values": [{"measurement": "amount of pT179 CDK-1 bound relative to CYB-1", "value": "~1.3", "unit": "fold"}]}, {"binder": "B3", "values": [{"measurement": "amount of pY33 CDK-1 bound relative to CYB-1", "value": "~1.3", "unit": "fold"}]}]}
